Signalling assay, increase of EC50 compared to NPY and signalling assay (Ca2+), decrease in potency compared to full-length NPY data for two molecules are collected here from publication PMC8844075, “Structural basis of neuropeptide Y signaling through Y1 receptor” (Nature Communications, 2022).

For experiment [1], the target named is Y1R-eYFP (wild-type Y1R) (human) (UniProt P25929).
The target is the same in experiment [2]. This is another data set of the same source.

Y1R-eYFP (wild-type Y1R) (human), sequence (P25929 whole entry): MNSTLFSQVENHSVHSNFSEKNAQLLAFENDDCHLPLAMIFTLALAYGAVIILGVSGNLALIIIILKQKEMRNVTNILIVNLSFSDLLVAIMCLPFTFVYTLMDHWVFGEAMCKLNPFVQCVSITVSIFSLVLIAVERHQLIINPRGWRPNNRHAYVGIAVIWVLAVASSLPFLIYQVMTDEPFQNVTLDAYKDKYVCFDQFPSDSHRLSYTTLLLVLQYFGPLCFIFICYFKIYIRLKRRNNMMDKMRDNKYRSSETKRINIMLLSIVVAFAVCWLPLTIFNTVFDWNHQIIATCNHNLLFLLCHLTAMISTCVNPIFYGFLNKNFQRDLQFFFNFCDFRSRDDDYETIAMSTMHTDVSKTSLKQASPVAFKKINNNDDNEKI

Molecule APLEPVYPGDNATPEQMAQYAADLRRYINMLTRPRY [pancreatic polypeptide (PP)] returned a signalling assay, increase of EC50 compared to NPY in experiment [1] of 64 fold.
ARYYSALRHYINLITRQRY [NPY(18–36)] gave a signalling assay (Ca2+), decrease in potency compared to full-length NPY in experiment [2] of 300 fold.
